± gives the uncertainty stated by the source.
B1: Homeobox protein cut-like 1, residues 548 to 629; numbered along this chain, P39880 (parent)
chain: GEEMDTAEIARQVKEQLIKHNIGQRIFGHYVLGLSQGSVSEILARPKPWNKLTVRGKEPFHKMKQFLSDEQNILALRSIQGR

Variants of: B1
Test: abundance fitness (aPCA) (normalised: wild type 0, dead -1); higher = more abundant; growth selection in yeast, the domain comes from the species named
Details: Homo sapiens

Q: For GEEMDTAEIARQVKEQLIKHNIGQRIFGHYVLGLSQGSVSEILARPKPWNKLTVRGKEPFHKMKQFLSDEQNILALRAIQGR [S78A], which abundance fitness is on record?
A: The abundance fitness was 0.042 ± 0.032.

Q: With GEEMDTAEIARQVKEQLIKHNIGQRIFGHYVLGLSQGSVSEILARPKPWNKLTVRGKEPFHKMKQFLSDEQNILALRNIQGR [S78N] as the variant, how does the abundance fitness read?
A: Its abundance fitness is 0.018 ± 0.049.

Q: For GEEMDTAEIARQVKEQLIKHNIGQRIFGHYVLGLSQGSVSEILARPKPWNKLTVRGKEPFHKMKQFLSDEQNILALRMIQGR [S78M], which abundance fitness is on record?
A: Its abundance fitness is -0.009 ± 0.043.

Q: With GEEMDTAEIARQVKEQLIKHNIGQRIFGHYVLGLSQGSVSEILARPKPWNKLTVRGKEPFHKMKQFLSDEQNILALRCIQGR [S78C] as the variant, how does the abundance fitness read?
A: The abundance fitness was -0.107 ± 0.043.

Q: Which abundance fitness does the source give for GEEMDTAEIARQVKEQLIKHNIGQRIFGHYVLGLSQGSVSEILARPKPWNKLTVRGKEPFHKMKQFLSDEQNILALRRIQGR [S78R] here?
A: Its abundance fitness is 0.003 ± 0.027.

Q: Which abundance fitness does the source give for GEEMDTAEIARQVKEQLIKHNIGQRIFGHYVLGLSQGSVSEILARPKPWNKLTVRGKEPFHKMKQFLSDEQNILALRHIQGR [S78H] here?
A: Its abundance fitness is -0.053 ± 0.061.

Q: Which abundance fitness does the source give for GEEMDTAEIARQVKEQLIKHNIGQRIFGHYVLGLSQGSVSEILARPKPWNKLTVRGKEPFHKMKQFLSDEQNILALRYIQGR [S78Y] here?
A: Its abundance fitness is -0.223 ± 0.052.

Q: Which abundance fitness does the source give for GEEMDTAEIARQVKEQLIKHNIGQRIFGHYVLGLSQGSVSEILARPKPWNKLTVRGKEPFHKMKQFLSDEQNILALRWIQGR [S78W] here?
A: The abundance fitness was -0.201 ± 0.036.

Q: For GEEMDTAEIARQVKEQLIKHNIGQRIFGHYVLGLSQGSVSEILARPKPWNKLTVRGKEPFHKMKQFLSDEQNILALREIQGR [S78E], which abundance fitness is on record?
A: The abundance fitness was 0.087 ± 0.034.

Q: Which abundance fitness does the source give for GEEMDTAEIARQVKEQLIKHNIGQRIFGHYVLGLSQGSVSEILARPKPWNKLTVRGKEPFHKMKQFLSDEQNILALRIIQGR [S78I] here?
A: Its abundance fitness is -0.066 ± 0.052.

Q: For GEEMDTAEIARQVKEQLIKHNIGQRIFGHYVLGLSQGSVSEILARPKPWNKLTVRGKEPFHKMKQFLSDEQNILALRPIQGR [S78P], which abundance fitness is on record?
A: The abundance fitness was -0.359 ± 0.07.

Q: Which abundance fitness does the source give for GEEMDTAEIARQVKEQLIKHNIGQRIFGHYVLGLSQGSVSEILARPKPWNKLTVRGKEPFHKMKQFLSDEQNILALRDIQGR [S78D] here?
A: The abundance fitness was 0.097 ± 0.039.

Q: For GEEMDTAEIARQVKEQLIKHNIGQRIFGHYVLGLSQGSVSEILARPKPWNKLTVRGKEPFHKMKQFLSDEQNILALRGIQGR [S78G], which abundance fitness is on record?
A: The abundance fitness was 0.003 ± 0.025.

Q: With GEEMDTAEIARQVKEQLIKHNIGQRIFGHYVLGLSQGSVSEILARPKPWNKLTVRGKEPFHKMKQFLSDEQNILALRFIQGR [S78F] as the variant, how does the abundance fitness read?
A: The abundance fitness was -0.188 ± 0.055.

Q: For GEEMDTAEIARQVKEQLIKHNIGQRIFGHYVLGLSQGSVSEILARPKPWNKLTVRGKEPFHKMKQFLSDEQNILALRVIQGR [S78V], which abundance fitness is on record?
A: Its abundance fitness is -0.139 ± 0.03.

Q: For GEEMDTAEIARQVKEQLIKHNIGQRIFGHYVLGLSQGSVSEILARPKPWNKLTVRGKEPFHKMKQFLSDEQNILALRSIWGR [Q80W], which abundance fitness is on record?
A: Its abundance fitness is -0.307 ± 0.037.

Q: For GEEMDTAEIARQVKEQLIKHNIGQRIFGHYVLGLSQGSVSEILARPKPWNKLTVRGKEPFHKMKQFLSDEQNILALRSIYGR [Q80Y], which abundance fitness is on record?
A: The abundance fitness was -0.188 ± 0.055.

Q: With GEEMDTAEIARQVKEQLIKHNIGQRIFGHYVLGLSQGSVSEILARPKPWNKLTVRGKEPFHKMKQFLSDEQNILALRSINGR [Q80N] as the variant, how does the abundance fitness read?
A: The abundance fitness was -0.026 ± 0.059.

Q: For GEEMDTAEIARQVKEQLIKHNIGQRIFGHYVLGLSQGSVSEILARPKPWNKLTVRGKEPFHKMKQFLSDEQNILALRSIKGR [Q80K], which abundance fitness is on record?
A: Its abundance fitness is -0.12 ± 0.039.

Q: Which abundance fitness does the source give for GEEMDTAEIARQVKEQLIKHNIGQRIFGHYVLGLSQGSVSEILARPKPWNKLTVRGKEPFHKMKQFLSDEQNILALRSIEGR [Q80E] here?
A: Its abundance fitness is 0 ± 0.037.

Q: Which abundance fitness does the source give for GEEMDTAEIARQVKEQLIKHNIGQRIFGHYVLGLSQGSVSEILARPKPWNKLTVRGKEPFHKMKQFLSDEQNILALRSICGR [Q80C] here?
A: The abundance fitness was -0.028 ± 0.049.

Q: For GEEMDTAEIARQVKEQLIKHNIGQRIFGHYVLGLSQGSVSEILARPKPWNKLTVRGKEPFHKMKQFLSDEQNILALRSIFGR [Q80F], which abundance fitness is on record?
A: Its abundance fitness is -0.278 ± 0.062.

Q: For GEEMDTAEIARQVKEQLIKHNIGQRIFGHYVLGLSQGSVSEILARPKPWNKLTVRGKEPFHKMKQFLSDEQNILALRSIVGR [Q80V], which abundance fitness is on record?
A: The abundance fitness was 0 ± 0.03.

Q: With GEEMDTAEIARQVKEQLIKHNIGQRIFGHYVLGLSQGSVSEILARPKPWNKLTVRGKEPFHKMKQFLSDEQNILALRSIMGR [Q80M] as the variant, how does the abundance fitness read?
A: The abundance fitness was -0.079 ± 0.038.

Q: Which abundance fitness does the source give for GEEMDTAEIARQVKEQLIKHNIGQRIFGHYVLGLSQGSVSEILARPKPWNKLTVRGKEPFHKMKQFLSDEQNILALRSIDGR [Q80D] here?
A: Its abundance fitness is -0.089 ± 0.056.

Q: Which abundance fitness does the source give for GEEMDTAEIARQVKEQLIKHNIGQRIFGHYVLGLSQGSVSEILARPKPWNKLTVRGKEPFHKMKQFLSDEQNILALRSIAGR [Q80A] here?
A: Its abundance fitness is 0.034 ± 0.032.

Q: With GEEMDTAEIARQVKEQLIKHNIGQRIFGHYVLGLSQGSVSEILARPKPWNKLTVRGKEPFHKMKQFLSDEQNILALRSIRGR [Q80R] as the variant, how does the abundance fitness read?
A: Its abundance fitness is -0.176 ± 0.028.

Q: For GEEMDTAEIARQVKEQLIKHNIGQRIFGHYVLGLSQGSVSEILARPKPWNKLTVRGKEPFHKMKQFLSDEQNILALRSIHGR [Q80H], which abundance fitness is on record?
A: The abundance fitness was -0.075 ± 0.06.

Q: For GEEMDTAEIARQVKEQLIKHNIGQRIFGHYVLGLSQGSVSEILARPKPWNKLTVRGKEPFHKMKQFLSDEQNILALRSISGR [Q80S], which abundance fitness is on record?
A: The abundance fitness was -0.017 ± 0.036.

Q: With GEEMDTAEIARQVKEQLIKHNIGQRIFGHYVLGLSQGSVSEILARPKPWNKLTVRGKEPFHKMKQFLSDEQNILALRSILGR [Q80L] as the variant, how does the abundance fitness read?
A: The abundance fitness was -0.126 ± 0.035.

Q: Which abundance fitness does the source give for GEEMDTAEIARQVKEQLIKHNIGQRIFGHYVLGLSQGSVSEILARPKPWNKLTVRGKEPFHKMKQFLSDEQNILALRSITGR [Q80T] here?
A: Its abundance fitness is -0.095 ± 0.038.

Q: For GEEMDTAEIARQVKEQLIKHNIGQRIFGHYVLGLSQGSVSEILARPKPWNKLTVRGKEPFHKMKQFLSDEQNILALRSIIGR [Q80I], which abundance fitness is on record?
A: The abundance fitness was -0.098 ± 0.059.

Q: Which abundance fitness does the source give for GEEMDTAEIARQVKEQLIKHNIGQRIFGHYVLGLSQGSVSEILARPKPWNKLTVRGKEPFHKMKQFLSDEQNILALRSIPGR [Q80P] here?
A: Its abundance fitness is -0.098 ± 0.042.

Q: For GEEMDTAEIARQVKEQLIKHNIGQRIFGHYVLGLSQGSVSEILARPKPWNKLTVRGKEPFHKMKQFLSDEQNILALRSIGGR [Q80G], which abundance fitness is on record?
A: The abundance fitness was -0.06 ± 0.027.
